Measurements as given in the nanobody polyreactivity screen of Harvey et al. (2022).

Assay: yeast display, Sf9 membrane polyspecificity reagent, FACS + sequencing; frameworks hold sequencing errors
How it was run: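 Nanobodies came from a synthetic yeast display library in Saccharomyces cerevisiae BJ5465, induced with galactose for 36–48 hours and stained for 1 hour at 4 °C with 10% biotinylated, detergent-solubilized Sf9 membrane reagent. Cells were enriched on streptavidin microbeads and then FACS-sorted, with low and high (top ~1%) gates set on anti-HA fluorescence for expression and streptavidin fluorescence for reagent binding. Each polyreactivity label reflects the gate a clone came from. Genes were amplified by colony PCR, sequenced by MiSeq 2 × 250 and filtered by CDR length.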

Sequence	polyreactivity (PSR sort gate)
QVQLVESGGGLVQAGGSLRLSCAASGRIFGANAMGWYRQAPGKERELVAAISYSGSRTYYADSVKGRFTISRDNAKNTVYLQMNSLKPEDTAVYYCNTGIAGRRSGYRTDSDYWGQGTQVTVSS	high polyreactivity
QVQLVESGGGLVQAGGSLRLSCAASGRIFGAYALGWYRQAPGKERELVAAINSGGSTFYAHSVKGRFTISRDNAKNTVYLQLNSLKPDDTAVYYCAKRSYDYRRYYWGQGTQVTVSS	high polyreactivity
QVQLVESGGGLVQAGGSLRLSCAASGRIFGAYAMGWSRQAPGKERELVAAISSSGSRTYYADSVKGRFTISRDNAKNTVYLQMNSLKPEDTAVYYCAATRVSALYDYWGQGTQVTVSS	high polyreactivity
QVQLVESGGGLVQAGGSLRLSCAASGRIFGAYAMGWYRQAPGKERELVAAITGGGSTYYADSVKGRFTISRDNAKTTVYLQMKSLKPEDTAVYYCAADYYWTYSYYYERFDYWGQGTQVTVSS	low polyreactivity
QVQLVESGGGLVQAGGSLRLSCAASGRIFGAYAMGWYRQAPGKERELVAVITTDGSTTYADSVKGRFTISRDNAKNTVYLQMNSLKPEDTAVYYCAAYGGNGQYYSQYDYWGQGTQVTVSS	low polyreactivity
QVQLVESGGGLVQAGGSLRLSCAASGRIFGDNALGWYRQAPGKERELVAAITWSGGSTYYADSVKGRFTISRDNAKNTVYLQMNSLKPEDTAVYYCAADSHRDSSEMDYWGQGTQVTVSS	low polyreactivity
QVQLVESGGGLVQAGGSLRLSCAASGRIFGDNDMGWSRQAPGKDRELVAGIRWRADRTYYADSVKGRFTISRDNAKNTVYLQMNSLKPEDTAVYYCNVGSFTGHSYGFGYWGQGTQVTVSS	low polyreactivity
QVQLVESGGGLVQAGGSLRLSCAASGRIFGDNGMGWYRQAPGKERELVTYADSVKGRFTISRDNAKNTVYLQMNSLKAEDTAVYESNKDPPGFSGLDEIYWGQGTQVTVSS	low polyreactivity
QVQLVESGGGLVQAGGSLRLSCAASGRIFGDNVMGWYRQPPGKERELVAAIRKSGGNTYYADSVKGRFTISRDNAKNTVYLHMNSLKPEDTAVYYCAARYPYLYGFVEYDYWGQGTQVTLSS	low polyreactivity
QVQLVESGGGLVQAGGSLRLSCAASGRIFGDYAMGWYRQAPGKERELVAGINFSGGSTYYADSVKGRFTISRDNAKNTVYLQMNSLKPEDTAVYYCNVDSSTIWYLVPGDYWGQGTQVTVSS	low polyreactivity
QVQLVESGGGLVQAGGSLRLSCAASGRIFGDYGMGWYRQAPGKERELVAAISSGGSTNYADSVKGRFTISRDNAKNTVYLQMNSLKPEDTAVYYCAKATYPHEYDYWGQGTQVTVSS	low polyreactivity
QVQLVESGGGLVQAGGSLRLSCAASGRIFGFNMGWYRQAPGKERELVAAINSGGGTYYADSVKGLFTISRDNAKNTVYLQMNSLKPEYTAVYYCNARFRFRLGQYRYDYWGQGTQVTVSS	high polyreactivity
QVQLVESGGGLVQAGGSLRLSCAASGRIFGGNADMGWDRQAPGKERELVAVIDWSGGSTYYADSVKGRFTISRDNAKNTVYFQMHSLKPEDTAVYYCNADAPRSSGDYGQGDYWGQGTQVTVSS	high polyreactivity
QVQLVESGGGLVQAGGSLRLSCAASGRIFGGNAMGWYRPAPGKERELVAAITTRGGSTYADSVKGRFTISRDNAKNTVYLQMNSLKPEDTAVYYCAVERSYHGGPRYLVRTYGYWGQGTQVTVSS	low polyreactivity
QVQLVESGGGLVQAGGSLRLSCAASGRIFGGNVRGWYRQAPGKERELVAGISFSGGSTYYADSVKGRFTISRDNAKNTVYLQMNSLKPEDTAHYYCAASTYQPGALPFDYWGQGTQVTVSS	low polyreactivity
QVQLVESGGGLVQAGGSLRLSCAASGRIFGGYAMGWYRQAPGKERELVAAIRDSGRTYYADSVKGRFTISRDNAKNTVYLQMNSLKPEDTAVYYCAADAHSSYSPFRWYDYWGQGTQVTVSS	low polyreactivity
QVQLVESGGGLVQAGGSLRLSCAASGRIFGGYAMGWYRQAPGKERELVAAISRSGGSTYYADSVKGRFTISRDNAKNTVYLQMNSLKPEDTAVYYCNVASKRALSRYKGYYWGQGTQVTVSS	high polyreactivity
QVQLVESGGGLVQAGGSLRLSCAASGRIFGGYAMGWYRQAPGKERELVAGIRSGGSTYYADSVKGRFTISRDIAKNTVYLQINSLKPEDTAVYYCNARLYFWNRYTYSQNNYWGQGTQVTVSS	high polyreactivity
QVQLVESGGGLVQAGGSLRLSCAASGRIFGGYGRGWYRQAPGKERELVAAITSGDGSTYAESVKGRFTISRDNAKNTVYLQMNSLKPEDTAVYYCADESFGYSIDITDHEYWGQGTQVTVSS	high polyreactivity
QVQLVESGGGLVQAGGSLRLSCAASGRIFGGYVMGWYRQAPGKEREFVAAISGRGTSTSYADSVKGRFTISRDNAKNTVYLQMNSLKPEDTAVYYCAARRDGWTFWKYDYWGQGTQVTVSS	high polyreactivity
QVQLVESGGGLVQAGGSLRLSCAASGRIFGHYAMGWYRQAPGKERELVAAITIGGSTYYADSVKGRFTISRDNAKNTVYLQMNSLKPEDTAVYYCAKVGSNYRGRLGYWGQGTQVNVSS	low polyreactivity

Sequence	polyreactivity (PSR sort gate)
QVQLVESGGGLVQAGGSLRLSCAASGRIFGHYAMGWYRQAPGKERELVAAITRSGDRTYYADSVKGRFTISRDNAKNTVYLQMNSLKPEDTEVYYCAADVSAVQGYYYWGQGTQVTVSS	low polyreactivity
QVQLVESGGGLVQAGGSLRLSCAASGRIFGHYARGWYRQAPGKERELVAAITSGGRTYYADSVKGRFTISRDNAKNTVYLQMNSLKPEDTAVYYFNVRVFVGLQPFGYWGQGTQVTVSS	high polyreactivity
QVQLVESGGGLVQAGGSLRLSCAASGRIFGHYVMGWYRQAPGTERELVAAISYSGGSTYYAHSVKGRFTISRDNAKNTVYLQMNSLKPEDTAVYYCAAYVYRYHRVAYEYWGQGTQVTVSS	high polyreactivity
QVQLVESGGGLVQAGGSLRLSCAASGRIFGINAMGWYRQAPGKERALVAAISRSGSRTYYADSVKGRFTISRDNAKNTVYLQMNSLKPEDTAVYYCAAQKRVYDSVRSTDRYDYWGQGTQVTVSS	high polyreactivity
QVQLVESGGGLVQAGGSLRLSCAASGRIFGIYAMGWYRQAPGKERELVAAINSGDSTYADSVKGRFTISRDNAKNTVYLQMNSLKPEDTAVYYCAAEESTSSWSINDYWGQGTQVTVSS	low polyreactivity
QVQLVESGGGLVQAGGSLRLSCAASGRIFGIYAMGWYRQAPGKERELVAVITRGDRTYADSVKGRFTISRDNAKNTVYLQMNSLKTEDTAVYYCNADTGYRFDYWGQGTQVTVSS	high polyreactivity
QVQLVESGGGLVQAGGSLRLSCAASGRIFGKYALGWYRQAPGKERELVAAISGRGGRTYYADSVKGRFTISRDNAKNTVYLQMNSLKPEDTAVYYFANDPRGSRYDYWGQGTQVTVSS	high polyreactivity
QVQLVESGGGLVQAGGSLRLSCAASGRIFGKYTMGWYRQAPGKERELVAAISWGGGSTYYADSVKGRFTISRDNAKNTVYLQMNSLKPEDTAVYYCAADYYYYHTQEYDYWGQGTQVTVSS	high polyreactivity
QVQLVESGGGLVQAGGSLRLSCAASGRIFGKYVMGWYRQAPGKERELVAGISWSAGSTYYADSVKGRYTISRDNAKYTVYLQMNSLKPEDTAVYYCAAGLEGGYDYWGQGTQVTVSS	low polyreactivity
QVQLVESGGGLVQAGGSLRLSCAASGRIFGLNAMGWYRQAPGKEREFVAAITWRGGRTYYADSVKGRFTISRDNAKNTVYLQMNSLKPEDTAVYYCAADGGSTLDYYWGQGTQVTVSS	low polyreactivity
QVQLVESGGGLVQAGGSLRLSCAASGRIFGLYAMGWYRQAPGKEREFVAAINWDGGSTFYADSVKGRFTISRDNAKNTVYLQMNSLKPEDTAVYYCAADVYSYVSYSTYVSVFTYDYWGQGTQVTVSS	low polyreactivity
QVQLVESGGGLVQAGGSLRLSCAASGRIFGLYAMGWYRQAPGKERELVAAIRGRGGRTSYADSVKGRFTISRDNAKNTVYLQMNSLKPEDTAVYYCNAELYPWPGVVRYNYWGQGTQVTVSS	high polyreactivity
QVQLVESGGGLVQAGGSLRLSCAASGRIFGLYAMGWYRQAPGKERELVAAYADSVKGRFTISRDYAKNTVYLQMNSLKPEDTAVYYCAKGPLYAGYSIDLRDFNYWGQGTQVTVSS	low polyreactivity
QVQLVESGGGLVQAGGSLRLSCAASGRIFGLYTIGWYRQAPGKDREFVAGITYSAGRTYYADSVKGRFPISRDNAKNTVYLQMNSLKPEDTAVYYCAARIYSKFTSYGILDSWGQGTQVTVSS	high polyreactivity
QVQLVESGGGLVQAGGSLRLSCAASGRIFGNYAKGWYRQAPGKERELVAAISGGGSTYYADSVKGRFTISRDNAKNTVYLQMNSLKPEDTAVYYCAARFLSSVFGRKGGYWGQGTQVTVSS	low polyreactivity
QVQLVESGGGLVQAGGSLRLSCAASGRIFGNYAMGWYRQAPGKARELVAAITSGARTYYADSVKGRFTISRDNAKNTVYLQMNSLKPEDTAVYYCAAYHKSYSYRYDYWGQGTQVTVSS	high polyreactivity
QVQLVESGGGLVQAGGSLRLSCAASGRIFGPNAMGWYRQAPGKERELVAAISTSGGRTYYADSVKGRFTISRDNAKNTVYLQMNSLKPEDTAVYYCAADRSRWGQGTQVTVSS	high polyreactivity
QVQLVESGGGLVQAGGSLRLSCAASGRIFGPYAMGWYRQAPGKERELGASISGGGSTNYADSVKGRFTISRDNAKNTVYLPMNSVKPEDTAVYYCAADVYYQYWGWWPYDYWGQGTQVTVSS	low polyreactivity
QVQLVESGGGLVQAGGSLRLSCAASGRIFGPYAMGWYRQAPGKERELVASISYSGGSTYYADSVKGRFTISRDNAKNTVYLQMNSLKPEDTAVYYCAKGGYWRGYNYYYWGQGTQVTVSS	low polyreactivity
QVQLVESGGGLVQAGGSLRLSCAASGRIFGPYTMGWYRQAPGKERELVAAINGRGGSTYYADSVKGRFTISRDNAKNTVYLQMNSLKPEDTAVYYFNASPTWVYSRVYGYNYWGQGTQVTVSS	low polyreactivity
